Molecular target: the molecule itself
Assay: SEC-MALS; gel filtration coupled with multi-angle light scattering

B1: REXO2, N-terminal-truncated (Δ28aa), wild type (enzyme, human, UniProt Q9Y3B8 29-237, looked up)
chain: GGAAMAAGESMAQRMVWVDLEMTGLDIEKDQIIEMACLITDSDLNILAEGPNLIIKQPDELLDSMSDWCKEHHGKSGLTKAVKESTITLQQAEYEFLSFVRQQTPPGLCPLAGNSVHEDKKFLDKYMPQFMKHLHYRIIDVSTVKELCRRWYPEEYEFAPKKAASHRALDDISESIKELQFYRNNIFKKKIDEKKRKIIENGENEKTVS
notes: human REXO2 (oligoribonuclease, mitochondrial), lacking the N-terminal 28 residues (Δ28aa); Crystallised with an RNA oligonucleotide and Ca2+; also called WT; wild-type REXO2; not shown: 6x His-SUMO, N-terminal, cleaved
- stoichiometry N: 2

Reference: PMC7261184, “Human REXO2 controls short mitochondrial RNAs generated by mtRNA processing and decay machinery to prevent accumulation of double-stranded RNA” (Nucleic Acids Research, 2020)
